The values that follow come from patent US20030139374A1 (University of Texas, published 2003).

For orientation: EC50 means the concentration giving half of the maximal effect.

The test system of assay [1] is cancer patients having progressive disease. The following applies: human, in vivo; cited from earlier work.
The test system of the next assay is TNFα. The following applies: cited from earlier work.
A further assay concerns A20 lymphoma cells. As to the kind of experiment: In vitro coagulation assay on A20 cells with B21-2/10H10 capture antibody. In kind it is cell-based, mouse.
Assay [2] has as its system C1300 Muγ mouse neuroblastoma. As to the kind of experiment: In vivo tumor thrombosis, C1300 Muγ. The arrangement: species or system BALB/c nu/nu mice. The text has this:
(§1) Tumor test systems were of four types: i) 3LL mouse lung carcinoma growing subcutaneously in C57BL/6 mice; ii) C1300 mouse neuroblastoma growing subcutaneously in BALB/c nu/nu mice; iii) HT29 human colorectal carcinoma growing subcutaneously in BALB/c nu/nu mice; and iv) C1300 Muγ mouse neuroblastoma growing subcutaneously in BALB/c nu/nu mice. The C1300 Muγ tumor is an interferon-γ secreting transfectant derived from the C1300 tumor (Watanabe et al, 1989).
(§2) To establish tumors, 10^6 to 1.5×10^7 tumor cells were injected subcutaneously into the right anterior flank of the mice. When tumors had grown to various sizes, mice were randomly assigned to different study groups. […] Fab′, or bispecific antibody. Other mice received equivalent quantities IgG, Fab′ or bispecific antibody alone. The injections were performed slowly into one of the tail veins over approximately 45 seconds, usually followed by 200 μl of saline.
(§3) Twenty-four hours after being injected with tTF or immunoglobulin-tTF conjugates, the mice were anesthetized with metophane and were exsanguinated by perfusion with heparinized saline. Tumors and normal tissues were excised and immediately fixed in 3% (v/v) formalin. Paraffin sections were cut and stained with hematoxylin and eosin. Blood vessels having open lumens containing erythrocytes and blood vessels containing thrombi were counted. […]

The test system of assay [3] is C1300 mouse neuroblastoma. Nature of the assay: In vivo tumor thrombosis, C1300. The following applies: large tumors (>1000 mm^3); 24 hours after injection. The arrangement: species or system BALB/c nu/nu mice.
Source text: as §1, §2, §3

A further assay deals with 3LL mouse lung carcinoma. Nature of the assay: In vivo tumor thrombosis, 3LL. On the set-up: species or system C57BL/6 mice. The following applies: large (>800 mm^3) tumors.
Source text: as §1, §2, §3

For a further assay, the system named is C1300 Muγ tumors. Nature of the assay: Anti-tumor effects (tumor growth), C1300 Muγ. In kind it is in vivo, nu/nu mice. The following applies: 300 mm^3 at start. As to the method:
The tumor test systems were: i) L540 human Hodgkin's disease tumors growing in SCID mice; ii) C1300 Muγ (interferon-secreting) neuroblastoma growing in nu/nu mice; iii) H460 human non-small cell lung carcinoma growing in nu/nu mice. To establish solid tumors, 1.5×10^7 tumor cells were injected subcutaneously into the right anterior flank of SCID or BALB/c nu/nu mice (Charles River Labs., Wilmingham, Mass.). When the tumors had grown to various diameters, mice were assigned to different experimental groups, each containing 4 to 9 mice.
Other mice received equivalent quantities of bispecific antibody alone. The injections were performed over ˜45 seconds into one of the tail veins, followed by 200 μl of saline. The infusions were repeated six days later. Perpendicular tumor diameters were measured at regular intervals and tumor volumes were calculated.
Mice bearing small (300 mm^3) C1300 Muγ tumors were injected intravenously with 16-20 μg tTF219. The treatment was repeated one week later. […] One week after the second treatment with tTF219, tumors were 60% of the size of tumors in mice receiving diluent alone. The greater effectiveness of the second injection probably derives from the greater thrombotic action of tTF219 on vessels in large tumors, observed above. […]

Assay [4] has as its system HT29 human colorectal carcinomas. As to the kind of experiment: Anti-tumor effects, HT29. In kind it is in vivo, Nu/nu mice. The following applies: large (1200 mm^3) tumors. As to the method: Anti-tumor effects were also observed in mice bearing HT29 human colorectal carcinomas. Nu/nu mice bearing large (1200 mm^3) tumors on their flanks were injected intravenously with tTF219 or PBS (control), and growth of the tumors was monitored each day for 10 days. The tumors in the tTF219 treated mice discontinued growth for about 7 days after treatment, whereas the tumors in mice treated with PBS continued to grow unchecked.

The test system of assay [5] is HT29 (human colorectal carcinoma) xenograft. Nature of the assay: HT29 xenograft necrosis after tTF constructs with Factor VIIa. The arrangement: species or system BALB/c nu/nu mice. The following applies: mouse, in vivo, iv.
Assay [6] relates to IL-1α-stimulated bEnd.3 cells. Nature of the assay: Factor Xa formation by coaguligand on bEnd.3 cells, chromogenic assay. In kind it is cell-based, mouse. The following applies: 10 μg per ml. On the procedure:
The ability of Annexin V to affect Factor Xa formation induced by coaguligand was determined by a chromogenic assay. […] Annexin V was added at concentrations ranging from 0.1 to 10 μg/ml and cells were incubated for 30 min. before addition of diluted Proplex T. The amount of Factor Xa generated in the presence or absence of Annexin V was determined. Each treatment was performed in duplicate and repeated at least twice.

A further assay relates to L540 Hodgkin tumors. Nature of the assay: Annexin V inhibition of coaguligand-induced thrombosis in vivo. The arrangement: species or system SCID mice. As to the method: The ability of Annexin V to inhibit coaguligand-induced thrombosis in vivo was examined in L540 Hodgkin-bearing SCID mice.
Four hours after the last injection mice were anesthetized and perfused with heparinized saline. Tumors were removed, fixed with 4% formalin, paraffin-embedded and stained with hematoxylene-eosin. The number of thrombosed and non-thrombosed blood vessels were counted and the percentage of thrombosis was calculated.

Assay [7] concerns the target T1, recombinant human VEGF (VEGF165) (human, UniProt P15692-4 27-191, biotinylated in the capture and competition ELISAs).
T1 construct: also called free VEGF; VEGF-biotin
As to the kind of experiment: capture ELISA, antibody-coated wells, biotinylated VEGF titrated.

A further assay deals with T2, VEGF:Flk-1 complex (human; mouse, UniProt P15692 27-191; P35918 20-762, biotinylated).
T2 construct: Formed overnight at 4 C at a molar ratio of sFlk-1 to VEGF of 2.5:1; also called VEGF:receptor complex; VEGF:sFlk-1
As to the kind of experiment: capture ELISA, antibody-coated wells, soluble VEGF:sFlk-1-biotin titrated. For orientation: An ELISA detects its analyte on a solid surface through an enzyme-linked reagent.

Assay [8] addresses T1, recombinant human VEGF (VEGF165). Nature of the assay: competition ELISA, 1 nM VEGF on VEGFR1 (Flt-1/Fc) wells, 100 fold molar excess of 2C3.
Assay [9] has the same target. Nature of the assay: competition ELISA, 1 nM VEGF on VEGFR1 (Flt-1/Fc) wells, 1000 fold molar excess of 2C3.

T1 sequence (P15692 other isoform, or with tags, fused parts or gaps limits assumed): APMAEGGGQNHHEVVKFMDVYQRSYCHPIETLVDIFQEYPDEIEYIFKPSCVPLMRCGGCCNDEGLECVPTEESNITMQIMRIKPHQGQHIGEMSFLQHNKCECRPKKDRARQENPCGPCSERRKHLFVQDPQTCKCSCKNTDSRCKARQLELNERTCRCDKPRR
T2 sequence (P15692 other isoform, or with tags, fused parts or gaps limits assumed, chain 1 of 2): as the sequence (P15692 other isoform, or with tags, fused parts or gaps limits assumed) above
T2 sequence (P35918 20-762 limits assumed, chain 2 of 2): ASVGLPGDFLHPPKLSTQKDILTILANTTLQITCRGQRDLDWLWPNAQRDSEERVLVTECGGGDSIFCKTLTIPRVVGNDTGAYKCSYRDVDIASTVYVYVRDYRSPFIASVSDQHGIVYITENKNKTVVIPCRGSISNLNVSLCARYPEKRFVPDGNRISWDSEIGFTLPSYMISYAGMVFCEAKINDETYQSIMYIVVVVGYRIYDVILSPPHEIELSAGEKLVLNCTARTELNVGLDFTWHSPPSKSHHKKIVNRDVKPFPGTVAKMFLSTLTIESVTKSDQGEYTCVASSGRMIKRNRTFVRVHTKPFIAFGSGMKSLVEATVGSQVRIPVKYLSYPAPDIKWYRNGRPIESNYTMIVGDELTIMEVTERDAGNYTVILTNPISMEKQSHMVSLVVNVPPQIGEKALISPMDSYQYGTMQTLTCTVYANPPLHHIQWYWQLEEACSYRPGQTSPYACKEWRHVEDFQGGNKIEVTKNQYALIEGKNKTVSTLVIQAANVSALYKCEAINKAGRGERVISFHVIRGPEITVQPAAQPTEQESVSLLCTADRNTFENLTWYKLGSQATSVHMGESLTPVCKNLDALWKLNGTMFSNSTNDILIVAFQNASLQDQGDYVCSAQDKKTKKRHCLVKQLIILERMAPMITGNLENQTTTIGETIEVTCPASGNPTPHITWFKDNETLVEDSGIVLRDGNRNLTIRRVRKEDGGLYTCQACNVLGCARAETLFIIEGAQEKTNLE

As to `NC(=O)c1nnn(Cc2cc(Cl)c(C(=O)c3ccc(Cl)cc3)c(Cl)c2)c1N` [CAI, carboxyamidotriazole], in assay [1], the “patients with disease stabilization” value is reported as 49%.

For `Cc1ccc2c(=O)c3cccc(CC(=O)O)c3oc2c1C` [DMXAA], the “fold less effective than endotoxin in inducing TNFα” value with TNFα is reported as 20 fold.

B1: tTF219: residues 1-219 of TF plus an additional glycine at the N-terminus (protein)
chain: GSGTTNTVAAYNLTWKSTNFKTILEWEPKPVNQVYTVQISTKSGDWKSKCFYTTDTECDLTDEIVKDVKQTYLARVFSYPAGNVESTGSAGEPLYENSPEFTPYLETNLGQPTIQSFEQVGTKVNVTVEDERTLVRRNNTFLSLRDVFGKDLIYTLYYWKSSSSGKKTAKTNTNEFLIDVDKGENYCFSVQAVIPSRTVNRKSTDSPVECMGQEKGEFRE
For B1, the coagulation time with A20 lymphoma cells (10^−10 M tTF219, absence of Factor VIIa) amounted to 60 s; in the assay with A20 lymphoma cells (10^−10 M tTF219, presence of 13.5 nM Factor VIIa), 20 s. The “thrombosis of tumor vessels” value is “practically all vessels in all regions of the tumor were thrombosed” in [2] (24 hours after injection) and “virtually all vessels were thrombosed” in assay [3]. Further, in [2] (small (<500 mm^3) C1300 and C1300 Muγ), the “effect on vessels in small tumors” value is recorded as “largely unaffected”. In addition, the “tumor vessels thrombosed, average” value with 3LL mouse lung carcinoma is reported as 62%. In addition, the “tumor size relative to mice receiving diluent alone” value with C1300 Muγ tumors (16-20 μg i.v., repeated one week later, one week after the second treatment) was determined as 60%. For the same molecule, the “tumor size relative to controls receiving diluent alone” value with C1300 Muγ tumors (treatment repeated 6 days later, fourteen days after the first injection) worked out at 75%. Further, the “time tumors discontinued growth after treatment” value in assay [4] is “about 7 days”. Besides, the “necrosis, average area as percentage of total tumor area” value in assay [5] is reported as “some necrosis”.

B2: Annexin V: binds to PS with high affinity (protein, UniProt P08758 2-320, looked up)
Annexin A5: AQVLRGTVTDFPGFDERADAETLRKAMKGLGTDEESILTLLTSRSNAQRQEISAAFKTLFGRDLLDDLKSELTGKFEKLIVALMKPSRLYDAYELKHALKGAGTNEKVLTEIIASRTPEELRAIKQVYEEEYGSSLEDDVVGDTSGYYQRMLVVLLQANRDPDAGIDEAQVEQDAQALFQAGELKWGTDEEKFITIFGTRSVSHLRKVFDKYMTISGFQIEETIDRETSGNLEQLLLAVVKSIRSIPAYLAETLYYAMKGAGTDDHTLIRVMVSRSEIDLFNIRKEFRKNFATSLYSMIKGDTSGDYKKALLLLCGEDD
As for B2, in [6], the “inhibition of factor Xa production” value turned out to be 58%. Moreover, the “effect of pre-treatment on coaguligand-induced anti-tumor effects” value in the assay on L540 Hodgkin tumors (100 μg Annexin V 2 hours before 40 μg coaguligand) was “completely abolished”. Further, the “effect on tumor morphology” value with L540 Hodgkin tumors (100 μg Annexin V alone) is “did not alter tumor morphology”.

B3: anti-VEGF antibody 2C3 (antibody, V domains shown)
VH: QVQLQESGPELVKPGASVKMSCKASGYTFTSYVFHWVKQKPGQGLEWIGYINPYNDVTKYNEKFKGKATLTSDKSSSTAYMELSSLTSEDSAVYYCASYYGSSYGYYAMDDWGQGTTVTVSS
VL: DIQLTQSPASLSVSAGEKVTMSCKSSQSLLNSGNQKNYLAWYQQKPGQPPKLLIHGASTRESGVPDRFTGSGSGTDFTLTISSVQAEDLAVYYCQNDYSYPLTFGAGTKLELKR
With B3, the EC50 in [7] is 1 nM; with VEGF:Flk-1 complex it was 150 nM. The “percent of VEGF bound to VEGFR1-coated wells relative to no 2C3” value in assay [8] amounted to 92%; in assay [9], 105%.
